We go through one molecule from patent US20220296727A1, “Immunoconjugate” (DendroCyte BioTech Pty Ltd, priority 2019, published 2022).

Entries after “also recorded” stand apart in the source; their conditions may differ.

One data set concerns T cells. Kind of data set: Mixed leucocyte reaction. It counts as cell-based, human. Conditions: 200 pmol, 24 hours pre-incubation of stimulators, day 5. As for the experimental part: DCR-2PBD's impact on antigen presentation was assessed by incubating DCR-2PBD or isotope-PBD with whole PBMC for 24 hours then washing, afterwards adding allogenic CFSE labeled T cells (naive CD4, magnetically separated) and measuring T cell division via reduction in CFSE expression. In more detail, T cells were depleted from PBMC by magnetic selection using an AutoMACS Pro with anti-CD3 mAb (HIT3a, Biolegend) with greater than 90% depletion in all samples. The CD3-depleted PBMC were incubated in complete RPMI media with DCR-2-PBD (200 pmol), isotype-PBD (200 pmol) or PBS for 24 hours. After washing to remove unbound ADC, the CD3-depleted PBMC were used to stimulate allogeneic CFSE labelled naive CD4+ T cells which had been prepared using a RosetteSep Kit (Stem Cell Technologies 17555). On day 5 the proliferation of T cells, identified using anti-CD3 AF700 (SP34-2), was assessed by CFSE reduction using flow cytometry. The results of the DCR-2-PBD and isotype-PBD groups were normalised to the PBS control group. […]
T cells were depleted from PBMC by magnetic selection using an AutoMACS Pro with anti-CD3 mAb (HIT3a, Biolegend) with greater than 90% depletion in all samples. […] On day 5 the proliferation of T cells, identified using anti-CD3 AF700 (SP34-2), was assessed by CFSE reduction using flow cytometry. […]

A further data set concerns primary AML cells. Kind of data set: Primary AML xenograft in NSG mice. The note with it: single dose 300 ug/kg. Type of data set: in vivo, mouse. The procedure: For primary AML xenografts, NSG mice were irradiated with 150cGy 24 hours before 8×10^6 AML cells from CRGH11 (sample 10 Table S1) were injected iv. Once engraftment was established (>1% human CD45 positive events in PB), mice were given DCR-2-PBD or isotype-PBD. Mice were euthanised 6 days later and the BM was harvested for enumeration and surface marker analysis by flow cytometry.

The test system of the next data set is primary AML. Kind of data set: Colony forming unit assay, primary AML samples. It counts as cell-based, human. As for the experimental part: CB cells, plated at 2×10^4 cells/well in semi-solid methylcellulose medium (MethoCult Classic, Stemcell Technologies) in a 24 well plate (Corning, N.Y., USA), were cultured at 37° C. in 5% CO2 for 14 days when colony forming units (CFU) were scored. DCR-2-PBD or isotype-PBD was added to each well for continuous exposure. Three CB samples were tested with duplicate wells performed in each experiment.
Two primary AML samples were tested: CRGH1 with low CD300f expression (MFI ratio of 2.6) and CRGH9 with a high CD300f expression (MFI 109.9) (FIG. 9).

In data set [1] the test system is monocyte-derived dendritic cells (MoDC). Kind of data set: Monocyte-derived dendritic cell (MoDC) toxicity assay. It counts as cell-based, human. The note with it: 200 pmol, 72 hours. As for the experimental part:
PBMC were incubated in complete RPMI media with or without DCR-2-PBD (200 pmol). After 12 hours, washed cells were incubated for a further 12 hours with or without LPS then phenotyped for the expression of activation markers on DC populations. MoDC were derived from CD14+ monocytes as described previously (Fromm et al. J Leukoc Biol. 2020; 107(2):323-339). DCR-2-PBD or isotype-PBD (200 pmol) were added for 72 hours prior to enumeration of live cells by flow cytometry.

Another data set has as its system HL-60. Kind of data set: Cytotoxicity assay on HL-60 AML cell line. Type of data set: cell-based. As for the experimental part: (§1) Kinetic analysis was performed as above.
(§2) DCR-2 and an isotype control mAb were conjugated to a PBD dimer toxin, to assess potential cytotoxicity. The cytotoxicity of DCR-2-PBD and the isotype-PBD were tested against CD300f+ and CD300f− cell lines and the results are shown in FIG. 6 and Table 2.

For the next data set, the system named is THP-1. Kind of data set: Cytotoxicity assay on THP-1 AML cell line. It counts as cell-based. The procedure:
as §1, §2

For the next data set, the system named is U937 cells. Kind of data set: U937 subcutaneous xenograft model in NSG mice. Type of data set: in vivo, mouse. Conditions: for tumour growth compared to isotype-PBD (300 ug/kg): intraperitoneal, once. As for the experimental part:
NOD.Cg-Prkdc^scld//2rg^tm1Wjl/SzJ (NSG) mice obtained from Australian BioResources were housed under specific pathogen free conditions. In the subcutaneous model, 2×10^6 U937 cells were injected under the skin on the right flank. Tumours were measured daily with electronic calipers. When the mean volume of the tumours was >100 mm^3, DCR-2-PBD, isotype-PBD or PBS was injected intraperitoneally once. […] Tumour volume was measured until >1000 mm^3 when mice were euthanised as required by the ethics protocol.
In the flank injection model 2×10^6 U937 cells were injected subcutaneously into NSG mice and the subsequent tumors were measured daily via caliper to calculate the volume. Mice were injected with 150 ug/kg of DCR-2ADC, Isotype-ADC or an equal volume of PBS on day 6. Mice were euthanized once the volumes reached 1000 mm^3. Survival and tumor size was recorded.
To determine the effect of DCR-2PBD in a mouse model based on U937 cells, mice were injected subcutaneously with cell line U937. After 6 days, mice were administered PBS, […] of CMRF-81PBD or […] of DCR-2PBD intraperitoneally and monitored for tumour growth. Tumour volume and survival of the mice were assessed and the results are shown in FIGS. 17 and 18, respectively.

B1: DCR-2PBD: anti-CD300f mAb DCR-2 conjugated to pyrrolobenzodiazepine dimer via Cathepsin B-cleavable linker MA-PEG4-VA-PBD; drug to antibody ratio 3.3 (conjugate)
VH: MESGGGLVQPGGPLKLSCAASGFGFSGSWMSWVRQAPGKGLEWIGQINPDSSTINYTPSLKDKFIISRDNAKNTLYLQINKVRSEDTALYYCARRGFFEGYSAWFAYW
VL: ILMTQTPKFLLVSAGDRVTITCKASQSVSNDVAWYQQKPGQSPSLLIYYASNRNTGVPDRFTGSGYETDFTFTISTVQAEDLAVYFCQQDYTSPWTFGGG
The term IC50 denotes the concentration needed to halve the response being measured. Lower therefore signals greater potency in that assay. Turning to B1, in the data set on T cells, the “T cell proliferation in mixed lymphocyte reaction” value is “no impact; also recorded: does not reduce T cell proliferation”. Further, in the data set with primary AML cells, the “AML cells as mean percentage of total cells in BM” value amounted to 12.32%. The “human AML cells in BM, mean total enumeration” value in the data set on primary AML cells is listed as 0.37×10^6. The “toxicity against primary AML CFU” value is listed as “Significant toxicity” in the data set with primary AML (CRGH1 (low CD300f expression), 196.1 pM) and “Significant toxicity” in the data set on primary AML (CRGH9 (high CD300f expression), all dose levels (P<0.001)). Besides, the “effect on MoDC survival” value in data set [1] is reported as “little effect”. The IC50 stood at 0.00544 nM in the data set with HL-60 and 0.0294 nM in the data set on THP-1. Further, the “survival compared to isotype-PBD (300 ug/kg)” value with U937 cells (150 ug/kg (p=0.0017)) and in the data set with U937 cells (300 ug/kg (p=0.0017)) was “significantly increased” in each case. The “tumour growth compared to isotype-PBD (300 ug/kg)” value in the data set with U937 cells (150 ug/kg) and with U937 cells (300 ug/kg) was “delayed” in each case.
